# What was measured:
# [1] = system: cynomolgus CD39-expressing CHO cells (CHO-cyCD39); assay: Inhibition of the enzymatic activity of cellular CD39 in CHO-cyCD39; assay type: cell-based, cynomolgus (Macaca fascicularis); conditions: result in words
# Method: (§1) The inhibition of the CD39 enzymatic activity in CD39-expressing cells by antibodies was evaluated using Cell Titer Glo™ (Promega, reference G7571) that allows assessment of ATP hydrolysis through use of a reagent that generates a luminescent signal proportional to the amount of ATP present. The assay was thus designed to permit assessment of the inhibition of ATP hydrolyzed by CD39 in the cell culture supernatant. Briefly, 5×10^4 Ramos human lymphoma cells, 5×10^3 human CD39-, cynomolgus CD39- and mouse CD39-expressing CHO cells, were incubated 1 hour at 37° C. with anti-CD39 antibodies from 30 μg/ml to […]. Cells were then incubated with 20 μM ATP for 1 additional hour at 37° C. Plates were centrifuged for 2 min at 400 g and 50 μl cell supernatant are transferred in a luminescence microplate (white wells). 50 μl CellTiter-Glo® Reagent (CTG) was added to the supernatant and emitted light was quantified after a 5 min incubation in the dark using a Enspire™ luminometer. Anti-CD39 antibody efficacy was determined by comparing emitted light in presence of antibody with ATP alone (maximal light emission) and ATP together with cells (minimal light emission).
# The inhibition by antibody I-394 of the ATPase activity of CD39 in CD39-expressing cells was evaluated using the assay used for inhibition of the enzymatic activity of cellular CD39 as described above (Methods).
# cell-membrane bound CD39 = biological target: T1, cell-membrane bound CD39 (Homo sapiens, UniProt P49961); assay: Inhibition of the enzymatic activity of cellular CD39 (cells not specified); assay type: cell-based
# T1 sequence (P49961 1-510): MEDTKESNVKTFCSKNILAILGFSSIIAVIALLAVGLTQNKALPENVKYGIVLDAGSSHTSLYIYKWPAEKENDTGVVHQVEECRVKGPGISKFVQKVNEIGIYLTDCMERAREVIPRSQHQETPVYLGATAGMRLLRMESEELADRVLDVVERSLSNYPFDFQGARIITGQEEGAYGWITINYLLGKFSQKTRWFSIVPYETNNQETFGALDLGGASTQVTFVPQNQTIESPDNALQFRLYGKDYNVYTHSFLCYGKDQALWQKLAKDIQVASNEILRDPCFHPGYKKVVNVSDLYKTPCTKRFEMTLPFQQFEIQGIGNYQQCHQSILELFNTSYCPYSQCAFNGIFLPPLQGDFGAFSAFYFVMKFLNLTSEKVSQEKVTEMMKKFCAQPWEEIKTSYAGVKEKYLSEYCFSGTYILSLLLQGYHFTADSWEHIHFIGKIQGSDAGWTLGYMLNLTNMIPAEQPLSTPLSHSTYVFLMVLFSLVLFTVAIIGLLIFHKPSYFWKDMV
# Method: as §1
# The two antibodies that have been reported to inhibit the ATPase activity of CD39 in cellular assays (BY40 and BY12) were assessed to determine whether are able to inhibit the ATPase activity of recombinant soluble CD39 protein. […]
# [2] = biological target: T2, CHO cells expressing murine CD39 (Mus musculus, UniProt P55772); assay: Antibody titration on CHO-moCD39 by flow cytometry; assay type: binding; conditions: result in words
# T2 construct: expressed in transfected cells; host or cells: CHO cells
# T2 sequence (P55772 1-510): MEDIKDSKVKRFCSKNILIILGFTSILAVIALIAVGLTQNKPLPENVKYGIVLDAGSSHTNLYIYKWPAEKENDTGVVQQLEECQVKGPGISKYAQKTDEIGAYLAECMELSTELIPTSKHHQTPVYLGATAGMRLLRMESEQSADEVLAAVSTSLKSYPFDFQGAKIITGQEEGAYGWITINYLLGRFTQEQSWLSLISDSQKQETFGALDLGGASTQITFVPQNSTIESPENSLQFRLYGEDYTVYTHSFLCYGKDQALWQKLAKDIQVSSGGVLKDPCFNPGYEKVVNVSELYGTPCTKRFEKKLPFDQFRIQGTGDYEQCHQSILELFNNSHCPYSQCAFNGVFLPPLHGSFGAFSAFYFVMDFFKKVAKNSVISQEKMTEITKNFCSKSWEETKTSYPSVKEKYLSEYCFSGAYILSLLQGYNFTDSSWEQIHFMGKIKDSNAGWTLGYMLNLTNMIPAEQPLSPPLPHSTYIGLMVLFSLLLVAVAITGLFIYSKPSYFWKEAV
# Method: Antibody I-394 was tested in two repeated experiments for binding to CHO cells expressing human CD39, CHO cells expressing cynomolgus (Macaca fascicularis) CD39, CHO cells expressing murine CD39, and human Ramos lymphoma cells (ATCC™, reference CRL-1596). Cells were incubated with various concentration of unlabeled anti-CD39 antibody from 30 μg/ml to 5×10^−4 μg/ml, for 30 minutes at 4° C. After washes, cells were incubated with Goat anti-mouse H+L labeled secondary antibody for 30 min at 4° C.
# [3] = system: monocyte-derived DC (moDC); assay: Activation of dendritic cells in presence of ATP (flow cytometry); assay type: cell-based, human; conditions: ATP at 0.125 mM, 0.25 mM or 0.5 mM; I-394 at 10 μg/ml
# Method: While ATP has pro-inflammatory, CD39-mediated catabolism of ATP is believed to be able to impair dendritic cell (DC) activation, in turn altering a broader adaptive immune response against tumor antigen. In order to evaluate whether CD39 blockade using anti-CD39 antibodies could overcome CD39-mediated alteration of dendritic cell (DC) activation in the presence of ATP, we incubated monocyte-derived DC (moDC) with anti-CD39 antibodies in the presence of ATP.
# Briefly, human monocytes were purified from human healthy blood and differentiated into MoDC in presence of GM-CSF and IL-4 during 6 days. […] In some cases, MoDC were preincubated during 1 hours in presence of CD39 inhibitor: […] (Tocris, 250 μM), CD73 inhibitor: APCP (Tocris 50 μM), anti-CD39 blocking antibody I-394 or BY40 (for BY40 see WO2009/095478), or anti-CD73 blocking antibodies. LPS (Invivogen, 10 ng/ml) was used as positive control. To assess resulting effect of ATP-mediated DC activation on CD4 T cells activation, ATP-activated DC were washed and then incubated with allogenic CD4 T cells (ratio 1 MoDC/4 T cells) for a mixed lymphocytes reaction (MLR) during 5 days. T cells activation and proliferation were analyzed through CD25 expression and Cell Trace Violet dilution by flow cytometry (FIG. 8).
substance,measurement,setting,value
"I-394: anti-CD39 antibody, VH SEQ ID NO: 6, VL SEQ ID NO: 7; human IgG1 Fc with L234A/L235E/G237A/A330S/P331S",blocking CD39 enzymatic activity in CHO-cyCD39,[1],blocks
same,potency and maximal inhibition of cellular CD39 compared to BY40 (FIG. 2A),cell-membrane bound CD39; compared to BY40,greater potency and maximal inhibition
same,inhibition of ATPase activity of CD39 protein in cells / cell-membrane bound CD39,cell-membrane bound CD39; result in words,inhibit
same,binding to cells expressing murine CD39 (CHO-moCD39),[2],not
same,ATP-induced moDC activation as assessed by HLA-DR or CD83 expression,[3],permitted moDC activation

# — patent US11578136B2, “Compositions and methods for treating cancer” (INNATE PHARMA, priority 2017, dated 2023)
